# ± gives the uncertainty stated by the source.
# Experiment: amyloid nucleation score (Sup35N fusion, yeast selection) (log enrichment); library NNK1; higher = more nucleation; inactive = no reads after selection
# How it was run: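 On medium lacking adenine and uracil, psi-negative yeast expressing peptides of 20 random codons fused to Sup35N were grown 7 days at 30°C after a 24-hour induction with 100 μM copper sulfate. Illumina sequencing of input and output plasmid inserts gave the reads, and sequences under 100 input reads were excluded. The nucleation score is the DiMSum log enrichment of output over input reads, centred on the mode score of non-aggregating sequences.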
row,Substance,amyloid nucleation score
1,ICTEIRRGLHE,1.11 ± 0.71
2,LIGRIGDFLA,0.097 ± 0.72
3,SYSYIRLDNFSMFIYFADCS,3.92 ± 0.066
4,YLVSTSRWGYLVLTLMWKEG,inactive
5,AVFLMFRYASFTYWM,0.444 ± 1.2
6,HISMRDFFSHLGRRVVGIMY,-1.1 ± 0.45
7,SDVKF,2.95 ± 0.11
8,ICNFERILRNMVFAWWYKID,0.621 ± 0.42
9,LVCFGFSNNCCELCCYYSNL,0.765 ± 0.61
10,YTHGG,inactive
11,KAVFDNLLTCPILVIGSTPA,-0.956 ± 0.93
12,CYGFCNCQYSESSKLLFDAL,-1.11 ± 0.34
13,LWRRWNCFT,inactive
14,GRISRFLFQRDNVWPSLAKQ,0.171 ± 0.52
15,FMMSNWTNLNSWKTL,-0.122 ± 0.23
16,GMRLGTRSLQHQRWCAMLYL,-1.37 ± 1.8
17,SSMNSWTDFFHFCST,0.032 ± 0.97
18,EVHRFRVKKEGGDQ,0.869 ± 0.57
19,CCLVLSFLCNMEDSRNGG,6.363 ± 0.056
20,DVPGSRQVLVYFFNQIFDEM,5.9 ± 0.088
21,VMFTTRSWSGDNVFLCV,inactive
22,LASSIFASFRTFVQPSVSGY,-0.146 ± 0.48

row,Substance,amyloid nucleation score
1,RASDRSSIMICF,0.382 ± 1.4
2,KCYLLRKVGCWHQHLDGHFG,-0.429 ± 0.66
3,LFVHFLTLSVISHYPRGN,inactive
4,RRNVYFYVWYVSPNVMKYSN,3.84 ± 0.1
5,GKDLDMRRLWFGPAGIWWSK,0.006 ± 0.59
6,GSVSVSQQS,-1.4 ± 2.4
7,LHMTFFTPVDLVVQRTDFRL,0.971 ± 0.52
8,MDLAYMFKLCIGVESM,inactive
9,EMEVLSVPSVLLVIVVR,-1.04 ± 0.66
10,VTRLLTLPWHCRRIYLVNLY,-0.09 ± 0.97
11,GFTMSTEGVS,0.781 ± 0.55
12,SSLLKWWDIVMKGEVIHGWC,-0.095 ± 0.47
13,DGRVKAKVMMVRNGSLRNVL,0.002 ± 0.4
14,GIETRMDWEV,1.67 ± 0.52
15,NCDKMVNMLPLRFSDIALSM,-0.566 ± 0.5
16,ISCYVRISIILFLEKMVLRA,0.033 ± 0.24
17,LHAYTLSYGLLVLSARSHEL,-0.01 ± 0.67
18,HRQGYVWYLLR,1.43 ± 0.24
19,ILLYVICQVVTTV,1.64 ± 0.34
20,YFYDLSRCLFIHCTVGSQIL,7.769 ± 0.044
21,SMFLLRPYRVCFCSRRFVTV,0.253 ± 0.77
22,IDGLNNYTSYNGTR,-0.219 ± 0.62

row,Substance,amyloid nucleation score
1,LTEDPGIRSSQR,0.055 ± 1
2,LSYMSLFW,1.94 ± 0.16
3,VRISWRGGGPLSCDVCACMT,0.479 ± 1.2
4,YRPNLLNSLTPTKTSIGSVY,1.11 ± 0.6
5,KRRYYCFGAMVY,0.203 ± 0.38
6,VSTCAAR,-0.383 ± 0.95
7,GVKSQTMLGLQRSAAFILCY,-0.127 ± 0.55
8,QNIGGFMARFIIFILLYDHW,0.714 ± 0.84
9,FIIKYK,2.26 ± 0.19
10,YDPPNCSAKSNQAGLKCTGA,2.22 ± 0.19
11,YVEQYLWDSDWSSGI,0.974 ± 0.14
12,SKTSKWYPTDKLNTGALFLK,-0.321 ± 0.34
13,GLVACQAMSNV,-0.138 ± 0.44
14,LRRFLPMALDDED,-0.676 ± 1.4
15,LTFRRRYRWGQGTCINFCRR,0.082 ± 0.67
16,MCSLYFLYGAGVSCGSVLNV,0.063 ± 0.4
17,RVCQKCCPVVYAMNQWIFDW,7.536 ± 0.051
18,LRCCRVN,-0.474 ± 0.42
19,MSYIQRMGVYLTITGLRGMK,-0.527 ± 1
20,MSRIEGHRLDVLSRHFR,-0.046 ± 0.32
21,EKNCRADATV,-1.96 ± 1.8
22,ASFYPKPS,0.4 ± 1.1

row,Substance,amyloid nucleation score
1,GFELVNVVGVIASLYNIIIV,2.92 ± 0.2
2,FNVLCPRRQNLSGVELD,-0.02 ± 0.45
3,LDMKSFEQLVKQLPCTWADD,0.222 ± 0.41
4,GKNFSTMAWP,-1.25 ± 2.7
5,ELERWLDQKGTLQLEDQTLV,-0.724 ± 2.4
6,PGNGTGVSTDGWVTLMHRRR,-0.709 ± 0.53
7,IWLSQYDHGNCVTYSQANYM,0.412 ± 0.85
8,TRFNFMGLYNLRMVN,-0.777 ± 1.2
9,VCCYILAYNMFGVLAEWLCG,3.66 ± 0.069
10,RAAKF,-1.15 ± 0.58
11,RFYIGIVIQRTYGRC,2.79 ± 0.071
12,RIHRVHRKF,-0.33 ± 0.38
13,SYLYTVNLFDFYCCRLRGST,3.99 ± 0.1
14,LSTAWFGQNAHRCLGLVTLA,-0.005 ± 0.59
15,TIHFRSDQHLSNIWRGFWQY,inactive
16,VVISIYGMYRSFTPQLWFKA,-0.603 ± 0.68
17,SVPRSGKALLLSMMQLGYDS,0.09 ± 0.39
18,CVTLCSDVSYSTYNWLPFIR,0.834 ± 0.44
19,YHANICSKFSSLYSNL,1.01 ± 0.93
20,THLGGRRFHFSELRTRSSRG,-0.023 ± 0.49
